94 variants from the supplement of paper PMC10567573 can be followed below.

B1: COX4I1 (parent)
chain: VAHVKHLSASQKALKEKEKASWSS
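Note: lentivirally expressed fusions sorted by FACS into six bins by GFP to DsRed ratio, PSI derived from sequencing read proportions per bin multiplied by bin number.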

In the data set the parent is B1. Kind of data set: protein stability index of a GFP-peptide fusion (GPS, HEK-293T) (PSI 1-6); higher = more stable. As to conditions: c terminus: a fixed tail appended.
As to VAHVKHLSALQKALKEKEKASWSS, the protein stability index is 2.58.
Take VAHVKHLSAIQKALKEKEKASWSS: the protein stability index was 2.37.
Turning to VAHVKHLSAYQKALKEKEKASWSS, the protein stability index came out at 2.28.
As to VAHVKHLSAQQKALKEKEKASWSS, the protein stability index came to 3.12.
In the case of VAHVKHLSACQKALKEKEKASWSS it was 1.97.
In the case of VAHVKHLSAEQKALKEKEKASWSS it was 3.95; in that of VAHVKHLSARQKALKEKEKASWSS, 3.16; in that of VAHVKHLSAAQKALKEKEKASWSS, 2.88.
As to VAHVKHLSAHQKALKEKEKASWSS, the protein stability index worked out at 3.05.
In the case of VAHVKHLSADQKALKEKEKASWSS it was 4.01; in that of VAHVKHLSATQKALKEKEKASWSS, 2.56.
Then VAHVKHLSAGQKALKEKEKASWSS, with 3.46.
VAHVKHLSAMQKALKEKEKASWSS: the protein stability index was determined as 2.94.
Then VAHVKHLSAPQKALKEKEKASWSS, with 3.39.
Turning to VAHVKHLSAKQKALKEKEKASWSS, the protein stability index was found to be 2.66.
With VAHVKHLSANQKALKEKEKASWSS, the protein stability index was 3.98.
In the case of VAHVKHLSAFQKALKEKEKASWSS it was 2.83; in that of VAHVKHLSAWQKALKEKEKASWSS, 2.26.
As for VAHVKHLSAVQKALKEKEKASWSS, the protein stability index stood at 2.94.
Then VAHVLHLSASQKALKEKEKASWSS, with 3.28.
VAHVYHLSASQKALKEKEKASWSS: the protein stability index was found to be 2.55.
Then VAHVQHLSASQKALKEKEKASWSS, with 3.12; and VAHVWHLSASQKALKEKEKASWSS, with 2.65.
In the case of VAHVCHLSASQKALKEKEKASWSS it was 2.61; in that of VAHVEHLSASQKALKEKEKASWSS, 3.69.
Then VAHVIHLSASQKALKEKEKASWSS, with 2.4.
On to VAHVDHLSASQKALKEKEKASWSS, for which the protein stability index is 3.27.
In the case of VAHVGHLSASQKALKEKEKASWSS it was 3.88.
In the case of VAHVNHLSASQKALKEKEKASWSS it was 3.45.
In the case of VAHVVHLSASQKALKEKEKASWSS it was 3.1; in that of VAHVPHLSASQKALKEKEKASWSS, 3.64.
VAHVMHLSASQKALKEKEKASWSS: the protein stability index stood at 2.78.
Then VAHVAHLSASQKALKEKEKASWSS, with 3.67.
Regarding VAHVTHLSASQKALKEKEKASWSS, the protein stability index is 3.66.
Then VAHVHHLSASQKALKEKEKASWSS, with 2.93; and VAHVSHLSASQKALKEKEKASWSS, with 3.72.
As for VAHVRHLSASQKALKEKEKASWSS, the protein stability index worked out at 2.65.
Then VAHVFHLSASQKALKEKEKASWSS, with 2.45.
Then VAHVKHLPASQKALKEKEKASWSS, with 3.62.
With VAHVKHLHASQKALKEKEKASWSS, the protein stability index turned out to be 3.22.
Consider VAHVKHLFASQKALKEKEKASWSS, for which the protein stability index came to 2.2.
Regarding VAHVKHLRASQKALKEKEKASWSS, the protein stability index turned out to be 3.11.
In the case of VAHVKHLWASQKALKEKEKASWSS it was 2.35; in that of VAHVKHLEASQKALKEKEKASWSS, 3.6.
Then VAHVKHLNASQKALKEKEKASWSS, with 3.53; and VAHVKHLTASQKALKEKEKASWSS, with 3.1; and VAHVKHLCASQKALKEKEKASWSS, with 2.41.
On to VAHVKHLKASQKALKEKEKASWSS, for which the protein stability index amounted to 3.46.
As to VAHVKHLQASQKALKEKEKASWSS, the protein stability index turned out to be 3.24.
On to VAHVKHLGASQKALKEKEKASWSS, for which the protein stability index is 3.64.
Consider VAHVKHLDASQKALKEKEKASWSS, for which the protein stability index was 3.86.
In the case of VAHVKHLIASQKALKEKEKASWSS it was 3.1; in that of VAHVKHLMASQKALKEKEKASWSS, 2.92; in that of VAHVKHLVASQKALKEKEKASWSS, 2.7.
In the case of VAHVKHLYASQKALKEKEKASWSS it was 2.55; in that of VAHVKHLAASQKALKEKEKASWSS, 3.57; in that of VAHVKHLLASQKALKEKEKASWSS, 3.02.
In the case of VAHWKHLSASQKALKEKEKASWSS it was 3.25; in that of VAHFKHLSASQKALKEKEKASWSS, 2.83.
Turning to VAHMKHLSASQKALKEKEKASWSS, the protein stability index turned out to be 3.55.
On to VAHYKHLSASQKALKEKEKASWSS, for which the protein stability index is 3.27.
In the case of VAHCKHLSASQKALKEKEKASWSS it was 3.34.
As to VAHKKHLSASQKALKEKEKASWSS, the protein stability index is 3.48.
Take VAHAKHLSASQKALKEKEKASWSS: the protein stability index is 4.1.
Then VAHIKHLSASQKALKEKEKASWSS, with 3.03.
With VAHLKHLSASQKALKEKEKASWSS, the protein stability index was 2.88.
For the variant VAHTKHLSASQKALKEKEKASWSS, the protein stability index came to 4.15.
Then VAHGKHLSASQKALKEKEKASWSS, with 3.47.
For VAHQKHLSASQKALKEKEKASWSS, the protein stability index was 2.73.
Then VAHRKHLSASQKALKEKEKASWSS, with 2.91; and VAHDKHLSASQKALKEKEKASWSS, with 3.45; and VAHSKHLSASQKALKEKEKASWSS, with 3.35.
Then VAHEKHLSASQKALKEKEKASWSS, with 3.71; and VAHHKHLSASQKALKEKEKASWSS, with 3.74; and VAHNKHLSASQKALKEKEKASWSS, with 3.64.
As for VAHVKHLSASQNALKEKEKASWSS, the protein stability index stood at 3.13.
With VAHVKHLSASQGALKEKEKASWSS, the protein stability index was 2.65.
Then VAHVKHLSASQTALKEKEKASWSS, with 3.32.
Then VAHVKHLSASQVALKEKEKASWSS, with 3.77; and VAHVKHLSASQWALKEKEKASWSS, with 2.69.
Turning to VAHVKHLSASQMALKEKEKASWSS, the protein stability index is 2.77.
VAHVKHLSASQPALKEKEKASWSS: the protein stability index came to 3.58.
On to VAHVKHLSASQRALKEKEKASWSS, for which the protein stability index worked out at 3.07.
In the case of VAHVKHLSASQQALKEKEKASWSS it was 3.86.
With VAHVKHLSASQLALKEKEKASWSS, the protein stability index was 3.32.
In the case of VAHVKHLSASQIALKEKEKASWSS, the protein stability index was 2.71.
Then VAHVKHLSASQHALKEKEKASWSS, with 2.84; and VAHVKHLSASQDALKEKEKASWSS, with 3.88.
Then VAHVKHLSASQFALKEKEKASWSS, with 2.92; and VAHVKHLSASQAALKEKEKASWSS, with 2.61.
Take VAHVKHLSASQYALKEKEKASWSS: the protein stability index worked out at 2.98.
Regarding VAHVKHLSASQCALKEKEKASWSS, the protein stability index was 2.33.
In the case of VAHVKHLSASQSALKEKEKASWSS it was 3.64.
Then VAHVKHLSASQEALKEKEKASWSS, with 3.52.
